Our source for the Kd values is patent US12435158.

Common to all, as to experiment: SPR Biacore 8k, antibody captured
For assay [1], the target named is lambda Bence Jones protein Lam134c.
Assay [2] concerns the target lambda Bence Jones protein Lam788a.
Assay [3] deals with lambda Bence Jones protein Lam885.
Assay [4] addresses lambda Bence Jones protein Lam893c.
For assay [5], the target named is lambda free light chain MyBio.
Assay [6] has as its target lambda free light chain Sigma.

B1: 10B3-VL1 (antibody, human IgG1, kappa, V domains shown)
VH: EVQLVESGGGLVKPGGSLRLSCAASGFTFSSYSMNWVRQAPGKGLEWVSFISSNRNYIYYADSVKGRFTISRDNAKNSLYLQMNSLRAEDTAVYYCASLANWGTYFDYWGQGTLVTVSS
VL: DIQMTQSPSSLSASVGDRVTITCRASQGISSWLAWYQQKPEKAPKSLIYAASSLQSGVPSRFSGSGSGTDFTLTISSLQPEDFATYYCRQYNSYPLTFGGGTKVEIRR
As usually defined, the Kd is the free concentration of one partner at which half of the binding sites on the other are occupied at equilibrium, for simple one-to-one binding. A higher Kd goes with a looser complex. Consider B1, for which the Kd was determined as 0.0453 nM in assay [1]; 0.11 nM in assay [2]; 0.0707 nM in assay [3]; 0.0401 nM in assay [4]; 0.0437 nM in assay [5]; 0.522 nM in assay [6].
